From US20250076311A1 (Chugai, published 2025)
Where a chain is given by its changes, count along the chain named. In names and notes the source's numbering stands. Each block holds one binder with its values, some of them ahead of it.

Experiments:
[1] = target: T1, cynomolgus monkey FcγRIIIaS extracellular domain with C-terminal His-tag (cynomolgus monkey, UniProt Q8SPW2 21-206 at identity 1.00)); test: SPR, antibody captured, FcγR analyte
T1 construct: also called cyno FcgRIIIaS; cynoFcγRIIIaS
T1 chain: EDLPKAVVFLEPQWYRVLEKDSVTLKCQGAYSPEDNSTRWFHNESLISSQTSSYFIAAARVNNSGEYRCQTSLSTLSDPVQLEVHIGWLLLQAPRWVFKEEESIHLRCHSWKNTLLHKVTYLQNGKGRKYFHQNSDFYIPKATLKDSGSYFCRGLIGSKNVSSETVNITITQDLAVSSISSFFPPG
Protocol: (§1) The kinetic analysis of interactions between these antibodies and FcγR was carried out using BIACORE® T200 or BIACORE® 4000 (GE Healthcare). HBS-EP+ (GE Healthcare) was used as the running buffer, and the measurement temperature was set to 25° C. […] After the measurement, the antibody captured on the chip was washed off by allowing reaction with 10 mM glycine-HCl, pH1.5 and 25 mM NaOH so that the chip was regenerated and used repeatedly. The sensorgrams obtained as measurement results were analyzed by the 1:1 Langmuir binding model using the BIACORE® Evaluation Software to calculate the binding rate constant ka (L/mol/s) and dissociation rate constant kd (1/s), and the dissociation constant KD (mol/L) was calculated from these values. […] Regarding such interactions, KD values were calculated using the following 1:1 binding model described in BIACORE® T100 Software Handbook BR1006-48 Edition AE.

[2] = target: T2, human FcγRIIaR extracellular domain with C-terminal His-tag (human, UniProt P12318 34-217); test: SPR, KD(parent SG1)/KD(variant)
T2 construct: also called human FcgRIIaR; FcγRIIa (type R)
T2 chain: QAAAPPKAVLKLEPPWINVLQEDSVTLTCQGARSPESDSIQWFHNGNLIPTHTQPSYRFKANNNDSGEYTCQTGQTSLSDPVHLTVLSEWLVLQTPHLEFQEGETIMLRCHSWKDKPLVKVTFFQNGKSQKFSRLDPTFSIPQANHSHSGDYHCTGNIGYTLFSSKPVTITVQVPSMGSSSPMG

[3] = target: T3, human FcγRIIaH extracellular domain with C-terminal His-tag (human, UniProt P12318 34-217); test: SPR, KD(parent SG1)/KD(variant)
T3 construct: also called human FcgRIIaH; FcγRIIa (type H)
T3 sequence: T2 chain with R134H

[4] = target: T1, cynomolgus monkey FcγRIIIaS …; test: SPR, KD(parent SG1)/KD(variant)
[5] = target: T4, human FcγRIIb extracellular domain with C-terminal His-tag (human, UniProt P31994 43-217); test: SPR, KD(parent SG1)/KD(variant)
T4 construct: also called human FcgRIIb
T4 sequence: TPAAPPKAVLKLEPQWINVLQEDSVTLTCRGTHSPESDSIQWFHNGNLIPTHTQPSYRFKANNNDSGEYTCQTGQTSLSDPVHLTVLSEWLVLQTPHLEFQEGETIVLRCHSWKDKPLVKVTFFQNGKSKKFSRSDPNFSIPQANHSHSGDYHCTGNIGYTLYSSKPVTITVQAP

[6] = target: T5, cynomolgus monkey FcγRIIIaS extracellular domain, His-tagged (cynomolgus monkey, UniProt A3RFZ7 21-206 (rhesus entry)); test: SPR (BIACORE), antibody captured on chip, FcγR as analyte, 25 C; KD of M103205H795-SG1 divided by KD of the variant
T5 construct: also called cyno FcγRIIIaS; cynoFcγRIIIaS; not shown: His-tag added to the C-terminus
Protocol: as §1

[7] = target: T6, cynomolgus monkey FcγRIIa2 extracellular domain with C-terminal His-tag (cynomolgus monkey); test: SPR (Biacore), antibody captured, FcgR as analyte
T6 construct: also called cyno FcgRIIa2; cynoFcγRIIa2
T6 chain: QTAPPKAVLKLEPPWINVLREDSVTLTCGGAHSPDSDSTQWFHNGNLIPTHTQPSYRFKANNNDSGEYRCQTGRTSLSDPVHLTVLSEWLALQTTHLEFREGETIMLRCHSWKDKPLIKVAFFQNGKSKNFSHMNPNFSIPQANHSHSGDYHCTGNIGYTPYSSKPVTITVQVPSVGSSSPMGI
Protocol: as §1

[8] = target: T7, human FcγRIIaR extracellular domain, His-tagged (human, UniProt P12318 34-217); test: SPR Biacore, KD(SG1)/KD(variant)
T7 construct: also called human FcγRIIa (type R); FcgRIIaR; not shown: C-terminal His-tag
T7 chain: T2 chain
Protocol: as §1

[9] = target: T8, human FcγRIIb extracellular domain, His-tagged (human, UniProt P31994 43-217); test: SPR Biacore, KD(SG1)/KD(variant)
T8 construct: also called FcgRIIb (human); not shown: C-terminal His-tag
T8 sequence: T4 sequence
Protocol: as §1

[10] = target: T9, human FcγRIIb extracellular domain with C-terminal His-tag (human, UniProt P31994 43-217); test: SPR (Biacore), KD of SG1 divided by KD of variant
T9 construct: also called human FcgRIIb
T9 sequence: T4 sequence
Protocol: as §1

Kd [1]: 3200 nM
B1: MS1032LO06-MY101 (antibody, human IgG1, kappa)
heavy: QVTLKESGPVLVKPTETLTLTCTVSGIDLSHDDISWVRQAPGKGLEWVGIISYAGSTYYASWAKGRLTISKDTSKNQVVLTMTNMDPVDTATYYCARGVPAYSHGGDLWGQGTLVTVSSASTKGPSVFPLAPSSKSTSGGTAALGCLVKDYFPEPVTVSWNSGALTSGVHTFPAVLQSSGLYSLSSVVTVPSSSLGTQTYICNVNHKPSNTKVDKKVEPKSCDKTHTCPPCPAPELLNGPSVFLFPPKPKDTLMISRTPEVTCVVVDVSEEDPEVKFNWYVDGVEVHNAKTKPREEQYNSTYRVVSVLTVLHQDWLNGKEYKCKVSNKALPKPIEKTISKAKGQPREPQVYTLPPSREEMTKNQVSLTCLVKGFYPSDIAVEWESNGQPENNYKTTPMVLDSDGSFFLYSKLTVDKSRWQQGNVFSCSVMHEALHNHYTQKSLSLSP
light: DIVMTQSPATLSLSPGERATLSCTSSQSVYHANWLSWFQQKPGQPPKLLIYWASTLAYGVPSRFSGSGSGTDFTLTISSLQPEDAATYYCAGGYGGGRYAFGQGTKVEIKRTVAAPSVFIFPPSDEQLKSGTASVVCLLNNFYPREAKVQWKVDNALQSGNSQESVTEQDSKDSTYSLSSTLTLSKADYEKHKVYACEVTHQGLSSPVTKSFNRGEC
notes: also called M103205H795-MY101; copies: 2 + 2

KD fold (SG1 = 1) [2]: 1.1 fold
KD fold (SG1 = 1) [3]: 1.2 fold
KD fold (SG1 = 1) [4]: 0.19 fold
KD fold (SG1 = 1) [5]: 10.7 fold
B2: MS1032LO19-SG1074 (antibody, name in EU numbering)
heavy: QVQLVESGGGLVQPGGSLRLSCAVSGIDLSHDDISWVRQAPGKGLEWVSIISYAGSTYYASWAKGRLTISKDTSKNQVVLTMTNMDPVDTATYYCARGVPAYSHGGDLWGQGTLVTVSSASTKGPSVFPLAPSSKSTSGGTAALGCLVKDYFPEPVTVSWNSGALTSGVHTFPAVLQSSGLYSLSSVVTVPSSSLGTQTYICNVNHKPSNTKVDKKVEPKSCDKTHTCPPCPAPELLNGPSVFLFPPKPKDTLMISRTPEVTCVVVDVSDEDPEVKFNWYVDGVEVHNAKTKPREELYNSTYRVVSVLTVLHRDWLNGKEYKCKVSNTALPKPIEKTISKAKGQRREPQVYTLPPSREEMTKNQVSLTCLVKGFYPSDIAVEWESNGQPENNYKTTPPVLDSDGSFFLYSKLTVDKSRWQQGNVFSCSVLHEALHAHTTRKELSLSP
light: B1 light with S25T, A32E
notes: tied to rows r15/r33 by row order only; also called MS103240H795-SG1074

KD fold (SG1 = 1) [6]: 3.27 fold
B3: M103205H795-MY065/M103202L889-SK1 (antibody, human IgG1, kappa, name in EU numbering)
heavy: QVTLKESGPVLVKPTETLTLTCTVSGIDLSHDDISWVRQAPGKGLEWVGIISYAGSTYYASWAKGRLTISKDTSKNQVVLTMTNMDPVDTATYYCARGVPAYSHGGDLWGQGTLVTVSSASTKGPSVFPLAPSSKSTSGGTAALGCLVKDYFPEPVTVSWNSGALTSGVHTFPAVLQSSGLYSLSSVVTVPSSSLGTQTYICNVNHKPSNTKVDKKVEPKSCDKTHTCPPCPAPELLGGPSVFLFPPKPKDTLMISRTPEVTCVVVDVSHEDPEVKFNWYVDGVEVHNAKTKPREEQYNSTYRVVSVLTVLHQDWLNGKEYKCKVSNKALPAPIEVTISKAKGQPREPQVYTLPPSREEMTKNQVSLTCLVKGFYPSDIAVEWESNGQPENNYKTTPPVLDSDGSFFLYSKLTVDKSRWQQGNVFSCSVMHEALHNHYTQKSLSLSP
light: B1 light

KD fold (SG1 = 1) [2]: 0.1 fold
KD fold (SG1 = 1) [4]: 0.04 fold
B4: MS1032LO19-SG1079 (antibody)
heavy: B2 heavy with T328K, R345P, D415K, L430M, T438Y
light: B1 light with S25T, A32E
notes: tied to rows r17/r35 by row order only; also called MS103240H795-SG1079; copies: 2 + 2

Kd [7]: 1600 nM
B5: M103205H795-MY389 / M103202L889-SK1 (antibody, human IgG1, kappa, name in EU numbering)
heavy: B1 heavy with N238T, S241L, E270D, M398P
light: B1 light

KD fold (SG1 = 1) [8]: 4 fold
KD fold (SG1 = 1) [9]: 5.1 fold
B6: M103205H795-MY012/M103202L889-SK1 (antibody, human IgG1, kappa, name in EU numbering)
heavy: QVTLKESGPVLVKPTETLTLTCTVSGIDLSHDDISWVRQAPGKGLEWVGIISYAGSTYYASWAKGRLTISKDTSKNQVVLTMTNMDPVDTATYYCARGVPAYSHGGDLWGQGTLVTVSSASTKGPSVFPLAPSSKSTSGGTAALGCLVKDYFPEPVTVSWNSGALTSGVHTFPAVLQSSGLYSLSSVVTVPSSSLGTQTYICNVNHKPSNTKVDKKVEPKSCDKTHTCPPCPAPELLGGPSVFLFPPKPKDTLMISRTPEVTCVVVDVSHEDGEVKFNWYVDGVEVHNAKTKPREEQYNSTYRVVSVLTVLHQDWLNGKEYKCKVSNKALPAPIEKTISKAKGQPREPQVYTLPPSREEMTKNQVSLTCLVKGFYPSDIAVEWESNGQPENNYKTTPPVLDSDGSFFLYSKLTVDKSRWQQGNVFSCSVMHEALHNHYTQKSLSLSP
light: B1 light
notes: Substitution introduced into M103205H795-SG1; EU numbering

KD fold (SG1 = 1) [6]: 2.25 fold
B7: M103205H795-MY066/M103202L889-SK1 (antibody, human IgG1, kappa, name in EU numbering)
heavy: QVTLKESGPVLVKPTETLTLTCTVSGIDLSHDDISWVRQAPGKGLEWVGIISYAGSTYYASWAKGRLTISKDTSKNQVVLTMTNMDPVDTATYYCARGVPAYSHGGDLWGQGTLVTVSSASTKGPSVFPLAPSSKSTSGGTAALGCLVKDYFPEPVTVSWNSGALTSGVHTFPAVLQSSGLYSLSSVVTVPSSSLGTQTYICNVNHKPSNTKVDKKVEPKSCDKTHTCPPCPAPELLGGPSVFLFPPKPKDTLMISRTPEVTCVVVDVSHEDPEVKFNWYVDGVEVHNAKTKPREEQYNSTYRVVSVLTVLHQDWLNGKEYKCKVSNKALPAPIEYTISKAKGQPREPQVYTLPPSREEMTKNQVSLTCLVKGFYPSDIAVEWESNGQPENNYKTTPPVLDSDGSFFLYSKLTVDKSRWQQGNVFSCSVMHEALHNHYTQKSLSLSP
light: B1 light

Kd [7]: 1300 nM
B8: M103205H795-MY516 / M103202L889-SK1 (antibody)
heavy: B1 heavy with N238T, S241V, E270D, Q297L, S300L, M398P
light: B1 light
notes: 'Q235L' copied as printed, probably Q295L

KD fold (SG1 = 1) [6]: 3.6 fold
B9: M103205H795-MY067/M103202L889-SK1 (antibody, human IgG1, kappa, name in EU numbering)
heavy: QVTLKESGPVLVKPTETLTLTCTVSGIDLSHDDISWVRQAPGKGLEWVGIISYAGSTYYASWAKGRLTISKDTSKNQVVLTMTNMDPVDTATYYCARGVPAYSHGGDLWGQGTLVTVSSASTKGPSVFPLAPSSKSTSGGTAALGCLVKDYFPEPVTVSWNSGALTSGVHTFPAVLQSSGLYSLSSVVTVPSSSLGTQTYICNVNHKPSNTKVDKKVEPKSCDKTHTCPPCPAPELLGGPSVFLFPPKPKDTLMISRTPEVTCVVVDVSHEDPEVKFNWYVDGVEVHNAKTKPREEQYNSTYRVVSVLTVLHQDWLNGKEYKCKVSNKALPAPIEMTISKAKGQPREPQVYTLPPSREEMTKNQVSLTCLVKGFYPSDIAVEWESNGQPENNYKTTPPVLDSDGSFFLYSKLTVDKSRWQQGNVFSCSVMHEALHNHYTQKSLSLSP
light: B1 light

KD fold (SG1 = 1) [2]: 1.2 fold
KD fold (SG1 = 1) [3]: 1.8 fold
KD fold (SG1 = 1) [4]: 0.17 fold
KD fold (SG1 = 1) [5]: 0.7 fold
B10: MS1032LO06-SG1016 (antibody, human IgG1, kappa)
heavy: B1 heavy with Q313R, D401K, N436A
light: B1 light
notes: tied to rows r8/r26 by row order only; also called MS103205H795-SG1016; copies: 2 + 2

KD fold (SG1 = 1) [10]: 4.6 fold
Kd [7]: 1100 nM
B11: M103205H795-MY524 / M103202L889-SK1 (antibody, human IgG1, kappa, name in EU numbering)
heavy: B1 heavy with A233G, N238T, E270D, Q297L, M398P
light: B1 light

KD fold (SG1 = 1) [2]: 0.6 fold
KD fold (SG1 = 1) [3]: 1.5 fold
KD fold (SG1 = 1) [4]: 0.05 fold
KD fold (SG1 = 1) [5]: 5.9 fold
B12: MS1032LO06-SG1029 (antibody, human IgG1, kappa)
heavy: B1 heavy with E270D, Q297L, Q313R, M398P, D415K, N436A
light: B1 light
notes: tied to rows r9/r27 by row order only; also called MS103205H795-SG1029; copies: 2 + 2

KD fold (SG1 = 1) [6]: 3.6 fold
B13: M103205H795-MY015/M103202L889-SK1 (antibody, human IgG1, kappa, name in EU numbering)
heavy: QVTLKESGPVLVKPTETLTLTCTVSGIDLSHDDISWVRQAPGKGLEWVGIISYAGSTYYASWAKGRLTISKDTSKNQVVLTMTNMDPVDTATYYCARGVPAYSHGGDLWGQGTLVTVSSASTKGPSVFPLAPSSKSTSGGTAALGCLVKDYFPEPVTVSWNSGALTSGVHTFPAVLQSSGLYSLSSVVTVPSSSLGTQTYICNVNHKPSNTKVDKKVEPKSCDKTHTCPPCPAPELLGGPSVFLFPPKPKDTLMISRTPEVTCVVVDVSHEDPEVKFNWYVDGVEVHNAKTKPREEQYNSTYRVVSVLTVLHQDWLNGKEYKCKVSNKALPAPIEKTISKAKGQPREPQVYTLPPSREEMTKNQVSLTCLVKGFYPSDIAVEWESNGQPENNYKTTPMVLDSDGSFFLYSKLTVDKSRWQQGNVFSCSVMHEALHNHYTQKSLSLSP
light: B1 light

KD fold (SG1 = 1) [2]: 1.7 fold
KD fold (SG1 = 1) [4]: 0.05 fold
KD fold (SG1 = 1) [5]: 3.2 fold
B14: MS1032LO06-SG1031 (antibody, human IgG1, kappa, name in EU numbering)
heavy: B1 heavy with E270D, Q313R, M398P, D415K, N436A
light: B1 light
notes: tied to rows r10/r28 by row order only; also called MS103205H795-SG1031; copies: 2 + 2
